In US20240279345A1, “ALPHA 5 BETA 1 INTEGRIN BINDING AGENTS AND USES THEREOF” (PASITHEA THERAPEUTICS CORP., priority 2021, published 2024):
Residue numbers refer to the chain shown, from its start. Values belong to the molecule of their own block, whether it stands above or below them.

How the values were obtained:
[1] = biological target: purified recombinant human α5β1 integrin heterodimer (rh-α5β1; Acro Biosystems, cat. no. IT1-H52W5) (human) (UniProt P08648); experiment: Conformation assay ELISA: plate coated with 12G10, soluble 12G10 dilution series premixed with His-tagged rh-α5β1 and 0.5 mM MnCl2, captured α5β1 detected by anti-6xHis; competitor on the plate: 12G10 itself
[2] = biological target: purified recombinant human α5β1 integrin heterodimer, 6×His tagged (rh-α5β1; Acro Biosystems, cat. no. IT1-H52W5) (human) (UniProt P08648); experiment: ELISA, inhibition of rh-α5β1-His binding to coated FN, isotype control (data normalised to it)
[3] = biological target: T1, purified recombinant human α5β1 integrin heterodimer (rh-α5β1; Acro Biosystems, cat. no. IT1-H52W5) (human, UniProt P08648 42-995; P05556 21-728); experiment: FN-blocking ELISA
T1 construct: Bought protein; 6×His tagged; also called rh-α5β1-6×His tagged protein; His-tagged-α5β1
Description: Following 1 hour at RT, the wells were washed 3 times, incubated with biotinylated Anti-6×His-Tag Ab (Invitrogen, Carlsbad, CA, cat. no. MAI-21315-BTIN) at 1:1000 in Standard Diluent for 1 hour, washed 3 times, incubated for 30 minutes with poly-HRP Streptavidin (Thermo Fisher Scientific, Waltham, MA, cat. no. N200), washed 4 times, incubated with TMB substrate (Thermo Fisher Scientific, Waltham, MA, cat. no. N301) for 2-5 minutes, followed by addition of ELISA Stop Solution (Invitrogen, Carlsbad, CA, cat. no. SS04). Absorbance 450 nm was measured. Data points were normalized to the isotype Control Ab values at each concentration and reported as % Absorbance 450 nm normalized to Control Ab. Non-linear regression analysis was used to fit curves (4-parameter) to the data using GraphPad Prism version 9.0.2 (GraphPad Software, LLC, San Diego, CA).

[4] = biological target: T1, purified recombinant human α5β1 …; experiment: Conformation assay ELISA: plate coated with 12G10, antibody dilution series premixed with His-tagged rh-α5β1 and 0.5 mM MnCl2, captured α5β1 detected by anti-6xHis; competitor on the plate: 12G10
Description: Plates were then washed 3 times with Wash Buffer (1× Tris Buffered Saline containing 0.05% Tween20), then blocked with 2% BSA in 1×TBS for 2 hours at room temperature (RT). […] After 1 hour at RT, the wells were washed 3 times, incubated with biotinylated Anti-6×His-Tag Ab (Invitrogen, Carlsbad, CA, cat. no. MAI-21315-BTIN) at 1:1000 in Standard Diluent for 1 hour, washed 3 times, incubated for 30 minutes with poly-HRP Streptavidin (Thermo Fisher Scientific, Waltham, MA, cat. no. N200), washed 3 times, incubated with TMB substrate (Thermo Fisher Scientific, Waltham, MA, cat. no. N301) for 2-5 minutes, followed by addition of ELISA Stop Solution (Invitrogen, Carlsbad, CA, cat. no. SS04). Absorbance 450 nm was measured.

[5] = biological target: T2, rh-α5β1 in active conformation (binding to 12G10) (Homo sapiens, UniProt P05556+P08648); experiment: 12G10 conformation assay (α5β1 integrin binding to 12G10); conditions: human IgG4 chimeric antibodies; 0.5 mM MnCl2
T2 construct: purchased Acro Biosystems IT1-H52W5
Description: A Nunc MaxiSorp Flat-Bottom 96-well plate (Invitrogen, Waltham, MA, cat. no. 44-2404-21) was coated with 12G10 antibody at 2 μg/mL in 0.2M carbonate-bicarbonate buffer, pH9.4 (Thermo Scientific, Rockford, IL, cat. No. 28382) by incubation overnight at 4° C. Plates were then washed 3 times with Wash Buffer (1× Tris Buffered Saline containing 0.05% Tween20), then blocked with 2% BSA in 1×TBS for 2 hours at room temperature (RT). The human IgG4 chimeric versions of the antibodies were diluted in Standard Diluent (2% BSA, 1×TBS, 0.05% Tween20) containing 0.05 μg/mL rh-α5β1-6×His tagged protein (Acro Biosystems, Newark, DE, cat. no. IT1-H52W5) and 0.5 mM MnCl2 (TEKnova, Hollister, CA, cat. no. M0350) to generate a 7 point 1:5 antibody dilution series ranging from 10,000 ng/mL to 0.64 ng/mL. In addition to human IgG4 chimeric antibodies A-15B08, C-14D12 and A2-7A05, three other antibodies tested included IgG4 isotype control (human IgG4, Kappa, anti-fluorescein Ab00102-13.0, Absolute Antibody, Wilton, UK), anti-integrin alpha-5 clone SNAKA51 (MilliporeSigma, St. Louis, MO, cat. no. MABT201) known to induce integrin alpha-5 into an active conformation, and finally the 12G10 antibody itself which can directly compete with the 12G10 bound to the MaxiSorp plate. For the assays, 100 μL of the antibody dilution series, His-tagged-α5β1 mixture was added to the wells after the blocking solution was removed and wells were washed 3 times. […] Absorbance 450 nm was measured. Data points were normalized to the absorbance of the well containing no antibody for each dilution series and reported as Percent Binding. […]

[6] = biological target: T3, binding of α5β1 integrin to fibronectin (FN) (Homo sapiens, UniProt P05556+P08648); experiment: Quantitative FN inhibition (FN-blocking) assay in ELISA format; type: biochemical; conditions: by ELISA
T3 construct: purchased Acro Biosystems IT1-H52W5
Description: To determine whether the 9 unique hybridoma clones selected as described in Example 4 were able to inhibit the binding of α5β1 integrin to fibronectin (FN), the antibodies were first purified from hybridoma supernatants by Protein A chromatography, protein concentrations measured by BCA assay (Pierce™ BCA Protein Assay Kit; Thermo Fisher Scientific, Waltham, MA, cat. no. 23225) and then tested in a quantitative FN inhibition assay in an ELISA format.
Immulon4 HBX ELISA 96-well plates were coated with FN by incubation overnight at 4° C. with 2.5 μg/mL human FN (R&D Systems, Minneapolis, MN 55413, cat. no. 1918-FN) in 1×PBS (0.01M phosphate buffer and 0.154M NaCl, pH 7.4). Plates were then washed 3 times with Wash Buffer (1× Tris Buffered Saline containing 0.05% Tween20), blocked with 2% BSA in 1×TBS for 2 hours at room temperature (RT). Antibodies were diluted in Standard Diluent (2% BSA, 1×TBS, 0.05% Tween20) containing 0.1 μg/mL rh-α5β1-6×His tagged protein (Acro Biosystems, Newark, DE, cat. no. IT1-H52W5), to generate an 11 point 1:3 antibody dilution series ranging from 10,000 ng/mL to 0.17 ng/mL. Isotype control antibody (Control Ab; Ms IgG2a EMD Millipore Corp, Billerica, MA, cat. no. PP102) was used to normalize data across different assay runs. For the assays, 100 uL of the antibody dilution series/His-tagged-α5β1 mixture was added to the wells after the blocking solution was removed and wells were washed 3 times. Following 1 hour at RT, the wells were washed 3 times, incubated with biotinylated Anti-6×His-Tag Ab (Invitrogen, Carlsbad, CA, cat. no. MAI-21315-BTIN) at 1:1000 in Standard Diluent for 1 hour, washed 3 times, incubated for 30 minutes with poly-HRP Streptavidin (Thermo Fisher Scientific, Waltham, MA, cat. no. N200), washed 4 times, incubated with TMB substrate (Thermo Fisher Scientific, Waltham, MA, cat. no. N301) for 2-5 minutes, followed by addition of ELISA Stop Solution (Invitrogen, Carlsbad, CA, cat. no. SS04). Absorbance 450 nm was measured. Data points were normalized to the isotype Control Ab values at each concentration and reported as % Absorbance 450 nm normalized to Control Ab. Non-linear regression analysis was used to fit curves (4-parameter) to the data using GraphPad Prism version 9.0.2 (GraphPad Software, LLC, San Diego, CA).
Freeze-thaw stability was tested on a small aliquot of each chimera antibody by overnight storage at −80° C. followed by thaw on ice, repeated three times. […] IC50s were calculated by non-linear regression analysis curve-fitting (4-parameter) of the ELISA data (FIG. 5) using GraphPad Prism version 9.0.2 (GraphPad Software, LLC, San Diego, CA). […]

[7] = biological target: rh-α5β1 (Homo sapiens, UniProt P05556+P08648); experiment: Competition binding studies by Biolayer Interferometry (epitope groups); conditions: for Response (nm) / % Response: secondary mAb pre-mixed with 20 nM rh-α5β1; for % Response: relative to antigen alone
Description: Epitope analysis via competition binding studies was performed using Biolayer Interferometry (BLI) on the 6 antibodies selected as described in Example 5. The anti-α5β1 FN blocking antibodies A2-7A05, C-14D12 and A-15B08 were immobilized on sensors and incubated with each of the other antibodies that had been preincubated with rh-α5β1, to determine whether this antibody-antigen association prevents or allows binding to the antibody on the sensor. The magnitude of observed binding (response) was compared to binding of antigen alone under the same conditions. If the overall response was greater than 120% of antigen binding alone, then the antibodies can pair with each other. If response was less than 80% of response of antigen binding alone, then the antibodies block each other. The protocol was as follows: preincubate the panel of antibodies with antigen (1 hr). Equilibrate the sensor (30 seconds (s))-->Load lead Ab on the sensor (700s)--->Quench (480s)--->Read baseline (480s)-->measure preincubated Ab+Ag association with loaded sensor (600s).

IC50 (read off the curve) [1]: 0.08 µg/mL
Molecule: 12G10 (mouse anti-human integrin beta1/CD29 antibody, Novus Biologicals, cat. no. NB100-63255)

% Max Inhibition [2]: 0%
Molecule: Isotype control antibody (Ms IgG2a, EMD Millipore, cat. no. PP102)

fold potency (IC50) against the mouse hybridoma antibody it was derived from [3]: ~2 fold
IC50 (read off the curve) [4]: ~0.02 µg/mL
B1: A-15B08 IgG4 Chimera (antibody, V domains shown)
VH: QVQLKESGPGLVAPSQSLSITCTISGFSLTSYGVHWVRQPPGKGLEWLVVIWSDGSTTYNSTLKSRLSISKDNSKSQVFFKMNSLQTDDTAMYYCARHYDYDGDWFAYWGQGTLVTVSA
VL: QIVLTQSPAIMSASLGERVTMTCTASSRVSSNSLHWYQQKPGSSPKLWIYSTSNLASGVPARFSGSGSGTSYSLTISSMEAEDAATYYCHQYLRSPPTFGGGTKLEIK
notes: heavy chain glycosylated at the NST site of CDRH2; also called A-15B08 (human IgG4 chimeric antibody)

reduction of α5β1 integrin binding to 12G10 [5]: approximately 50%
class of FN binding blocker [6]: strong blockers of FN binding
binding of rh-α5β1 complexed with antibody to A2-7A05 on the sensor ([7]; antibody preincubated with rh-α5β1, A2-7A05 immobilized on sensor): able to bind
binding of rh-α5β1 complexed with antibody to A-15B08 on the sensor ([7]; antibody preincubated with rh-α5β1, A-15B08 immobilized on sensor): not able to bind
Response (nm) ([7]; immobilized mAb A2-7A05): 0.11 nm
% Response ([7]; immobilized mAb A2-7A05): 309.19%
Response (nm) ([7]; immobilized mAb A-15B08): −0.15 nm
% Response ([7]; immobilized mAb A-15B08): −72.85%
Response (nm) ([7]; immobilized mAb C-14D12): −0.11 nm
% Response ([7]; immobilized mAb C-14D12): −50.49%
epitope group ([7]; two epitope groups among 6 antibodies): second group
B2: C-14D12: anti-α5β1 antibody, VH SEQ ID NO:109, VL SEQ ID NO:110; tested as mouse hybridoma antibody and as human IgG4 chimera (antibody, V domains shown)
VH: QVQLKESGPDLVAPSQSLSITCTVSGFSLTDYGVHWVRQPPGKGLEWLVVIWSDGSTTYNSALKSRLSITKDTSKRQVFLKMNSLQTDDTAMYYCARHAPSFIRYGSRYDALDYWGQGTSVTVSS
VL: B1 VL with M21L, R28S, S30T, N32S, S33F, L93H
modifications: C-14D12 VH Sequence; C-14D12 VL Sequence
notes: tested as mouse hybridoma antibody and as human IgG4 chimera

fold potency (IC50) against the mouse hybridoma antibody it was derived from [3]: ~2 fold
IC50 (read off the curve) [4]: ~0.02 µg/mL
B3: C-14D12 IgG4 Chimera (antibody, V domains shown)
VH: B2 VH
VL: B1 VL with M21L, R28S, S30T, N32S, S33F, L93H
notes: also called C-14D12 (human IgG4 chimeric antibody)
